± gives the standard deviation of the averaged measurements.
tested on: ATP; assay: switch fluorescence ratio, 500 uM ATP over buffer (Cy3 cluster intensity, sum of 5 cycles each) (fold (ratio)); higher = stronger signal-on switching upon ATP binding; sequences stand for … in TCGTCGGCAGCGTCAGATGTGTATAAGAGACAGTTTTTTTTTTTTTTTTTTTTTTTTT…TC; conditions: aptamer strand: ATP DNA aptamer (quencher-CACCTGGGGGAGTATTGCGGAGGAAGG + anchor), 100 nM annealed; ATP concentration: 500 uM
Method in brief: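 Five buffer/ATP imaging cycles were run on Cy3-labelled switching-strand clusters on a modified Illumina MiSeq flow-cell, with NaOH stripping and re-annealing between cycles. In each cycle, clusters annealed to 100 nM quencher-labelled ATP aptamer were imaged in selection buffer, then after 15 min with 500 uM ATP at 22 °C. Per cluster, the fluorescence ratio is summed target-cycle over summed buffer-cycle Cy3 intensity, averaged per switch-domain sequence. Only clusters within 100-1000 RFU were kept.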
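Note: ATP exposure 15 min at 22 °C before imaging.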

| Sequence | switch fluorescence ratio |
| --- | --- |
| AAGGGCGTCA | 1.007 ± 0.0022 |
| AAGGGCTTCA | 1.031 ± 0.0074 |
| AAGGGGAAGT | 0.987 ± 0.038 |
| AAGGGGACAC | 1.02 ± 0.014 |
| AAGGGGAGTT | 0.998 ± 0.028 |
| AAGGGGCGAT | 0.98751 ± 0.00098 |
| AAGGGGCTTT | 1.01 ± 0.025 |
| AAGGGGGACT | 1.04 ± 0.039 |
| AAGGGGGCTA | 0.974 ± 0.027 |
| AAGGGGGTGT | 0.965 ± 0.026 |
| AAGGGGTAGG | 0.986 ± 0.036 |
| AAGGGGTAGT | 0.997 ± 0.025 |
| AAGGGGTCGT | 1 ± 0.025 |
| AAGGGGTGAA | 0.989 ± 0.017 |
| AAGGGGTGGG | 1.02 ± 0.032 |
| AAGGGGTGTG | 0.998 ± 0.013 |
| AAGGGTAAGC | 0.981 ± 0.029 |
| AAGGGTATGC | 1 ± 0.035 |
| AAGGGTCGAT | 0.968 ± 0.016 |
| AAGGGTTAGG | 1.03 ± 0.023 |
| AAGGTAATTT | 1.01 ± 0.03 |
| AAGGTACAAG | 1.06 ± 0.047 |
| AAGGTAGAAA | 1.03 ± 0.016 |
| AAGGTAGAAT | 0.986 ± 0.013 |
| AAGGTAGGGG | 0.986 ± 0.018 |

| Sequence | switch fluorescence ratio |
| --- | --- |
| AAGGTATTAG | 0.9926 ± 0.0055 |
| AAGGTCATTA | 0.97235 ± 0.00041 |
| AAGGTCCTCT | 1 ± 0.004 |
| AAGGTGAAGG | 1.02 ± 0.035 |
| AAGGTGAGGT | 1.038 ± 0.006 |
| AAGGTGTTGT | 1.04 ± 0.066 |
| AAGGTTCGAA | 1.023 ± 0.0033 |
| AAGGTTGAAC | 0.979 ± 0.011 |
| AAGGTTGACC | 1.01 ± 0.021 |
| AAGGTTGGGT | 0.984 ± 0.031 |
| AAGGTTGGTG | 1 ± 0.034 |
| AAGGTTTGCC | 0.965 ± 0.028 |
| AAGTAAGCAG | 0.9636 ± 0.0011 |
| AAGTAATGCG | 1.04 ± 0.034 |
| AAGTAATTGT | 1.01 ± 0.015 |
| AAGTACAAGG | 1.16 ± 0.1 |
| AAGTACGTTA | 1.25 ± 0.029 |
| AAGTAGAATT | 1.015 ± 0.0045 |
| AAGTAGAGTG | 0.9834 ± 0.0013 |
| AAGTAGGAAA | 0.999 ± 0.013 |
| AAGTAGTTCG | 0.9823 ± 0.0037 |
| AAGTAGTTTC | 1.01 ± 0.018 |
| AAGTATAATG | 1.02 ± 0.054 |
| AAGTATACTT | 0.986 ± 0.0049 |
| AAGTATAGGT | 1.03 ± 0.017 |

| Sequence | switch fluorescence ratio |
| --- | --- |
| AAGTATTAGA | 0.964 ± 0.011 |
| AAGTCATTTA | 0.9881 ± 0.0096 |
| AAGTCCCCGG | 1.18 ± 0.015 |
| AAGTCCTGGA | 1.07 ± 0.13 |
| AAGTCCTTCT | 1.07 ± 0.036 |
| AAGTCGCATT | 1.03 ± 0.014 |
| AAGTCGGTCT | 1.05 ± 0.1 |
| AAGTCTACG | 1.04 ± 0.03 |
| AAGTCTATGG | 1 ± 0.054 |
| AAGTCTTAAG | 1.04 ± 0.013 |
| AAGTGACAGC | 1 ± 0.031 |
| AAGTGAGAAA | 0.983 ± 0.066 |
| AAGTGAGTGC | 1 ± 0.059 |
| AAGTGCCTGC | 1.015 ± 0.0056 |
| AAGTGCTGGG | 0.993 ± 0.034 |
| AAGTGGATAT | 0.999 ± 0.024 |
| AAGTGGCTGG | 0.991 ± 0.038 |
| AAGTGGTCTG | 0.983 ± 0.017 |
| AAGTGGTTGG | 0.984 ± 0.024 |
| AAGTTAAAGG | 1.03 ± 0.077 |
| AAGTTAATCT | 0.988 ± 0.019 |
| AAGTTACGTT | 1.04 ± 0.081 |
| AAGTTACTAG | 1.07 ± 0.014 |
| AAGTTACTGT | 1.126 ± 0.006 |
| AAGTTAGACC | 1.026 ± 0.0041 |

| Sequence | switch fluorescence ratio |
| --- | --- |
| AAGTTATGAG | 1.01 ± 0.046 |
| AAGTTATGTT | 1.02 ± 0.028 |
| AAGTTATTTT | 1.01 ± 0.015 |
| AAGTTCATGG | 0.973 ± 0.012 |
| AAGTTCCTTC | 1.05 ± 0.036 |
| AAGTTCTTTA | 1.02 ± 0.022 |
| AAGTTGAGTA | 0.986 ± 0.025 |
| AAGTTGAGTT | 1.007 ± 0.0017 |
| AAGTTGGGAA | 1.02 ± 0.042 |
| AAGTTGGGAT | 0.972 ± 0.037 |
| AAGTTGGGCC | 0.955 ± 0.044 |
| AAGTTGTACG | 0.9989 ± 0.0032 |
| AAGTTGTTCT | 0.997 ± 0.014 |
| AAGTTTAGAA | 1 ± 0.012 |
| AAGTTTAGTG | 0.976 ± 0.019 |
| AAGTTTATTC | 0.967 ± 0.017 |
| AAGTTTGAAG | 0.974 ± 0.01 |
| AAGTTTGCAT | 0.978 ± 0.021 |
| AAGTTTGTT | 0.983 ± 0.027 |
| AAGTTTTAGG | 0.988 ± 0.027 |
| AAGTTTTGAC | 1 ± 0.014 |
| AAGTTTTGGA | 1.02 ± 0.025 |
| AAGTTTTGTG | 0.9869 ± 0.0074 |
| AAGTTTTTAT | 0.971 ± 0.019 |
| AAGTTTTTTA | 0.993 ± 0.023 |

| Sequence | switch fluorescence ratio |
| --- | --- |
| AAGTTTTTTG | 0.989 ± 0.013 |
| AATAAAAAAC | 1.05 ± 0.078 |
| AATAAAAGAG | 0.962 ± 0.018 |
| AATAAATGCT | 0.99 ± 0.036 |
| AATAAATTTA | 1 ± 0.016 |
| AATAACGAAG | 1.04 ± 0.045 |
| AATAAGAATA | 1 ± 0.037 |
| AATAAGAGAC | 1.01 ± 0.043 |
| AATAAGGCCG | 0.996 ± 0.076 |
| AATAAGGGTG | 1.09 ± 0.14 |
| AATAAGTGTT | 0.9792 ± 0.008 |
| AATAATAGGC | 0.97 ± 0.012 |
| AATAATCAGT | 1.05 ± 0.033 |
| AATAATTTAA | 0.995 ± 0.021 |
| AATACAATGG | 1.04 ± 0.011 |
| AATACAGAGA | 1.01 ± 0.055 |
| AATACATCGG | 0.999 ± 0.022 |
| AATACATGTA | 0.984 ± 0.013 |
| AATACGGGAG | 0.995 ± 0.017 |
| AATACGGGGA | 1.02 ± 0.024 |
| AATACGGGGT | 1.03 ± 0.033 |
| AATACGTAGT | 1.04 ± 0.078 |
| AATACGTTAG | 1.01 ± 0.027 |
| AATAGACCTT | 1.13 ± 0.17 |
| AATAGACTT | 0.999 ± 0.013 |

| Sequence | switch fluorescence ratio |
| --- | --- |
| AATAGAGGTT | 0.965 ± 0.02 |
| AATAGCAACT | 1.06 ± 0.029 |
| AATAGCCGGG | 0.97 ± 0.066 |
| AATAGGGGCA | 0.949 ± 0.017 |
| AATAGGGGGA | 1.01 ± 0.034 |
| AATAGGGGGG | 1.01 ± 0.024 |
| AATAGGGTGT | 1.07 ± 0.046 |
| AATATAGGCG | 1.04 ± 0.073 |
| AATATATCCG | 1.03 ± 0.02 |
| AATATATGT | 1.02 ± 0.023 |
| AATATCCTAT | 1.01 ± 0.03 |
| AATATCGCGG | 1.0264 ± 0.001 |
| AATATCGGCA | 0.982 ± 0.027 |
| AATATCGGGA | 0.983 ± 0.038 |
| AATATCTCTG | 1.02 ± 0.03 |
| AATATGAATT | 1.01 ± 0.016 |
| AATATGTGTA | 0.987 ± 0.018 |
| AATATTAGGT | 0.995 ± 0.023 |
| AATATTCCAT | 1.02 ± 0.045 |
| AATATTTTGG | 1.013 ± 0.0037 |
| AATCAGATCG | 0.962 ± 0.018 |
| AATCAGGACA | 0.9959 ± 0.0076 |
| AATCATATGG | 0.969 ± 0.057 |
| AATCATATTT | 1.02 ± 0.018 |
| AATCATTTTG | 1 ± 0.018 |

| Sequence | switch fluorescence ratio |
| --- | --- |
| AATCCGGAAC | 1.92 ± 0.023 |
| AATCCTAGTT | 1.01 ± 0.011 |
| AATCGAGGAG | 0.957 ± 0.053 |
| AATCGAGTGG | 0.969 ± 0.06 |
| AATCGGAGCA | 1.349 ± 0.0071 |
| AATCGGCCGG | 1.01 ± 0.053 |
| AATCGGCTGG | 1.01 ± 0.011 |
| AATCGGGACC | 0.9905 ± 0.002 |
| AATCGGGCAA | 1.34 ± 0.03 |
| AATCGGGGCG | 0.905 ± 0.016 |
| AATCGTTAAA | 0.9812 ± 0.0069 |
| AATCTACGCA | 1.44 ± 0.32 |
| AATCTACTGA | 1.013 ± 0.01 |
| AATCTATAAT | 1.007 ± 0.0018 |
| AATCTTCATG | 0.997 ± 0.044 |
| AATCTTCTGG | 0.98 ± 0.025 |
| AATCTTGGGA | 0.977 ± 0.028 |
| AATCTTGGGC | 0.9771 ± 0.0096 |
| AATCTTGTTG | 0.998 ± 0.021 |
| AATCTTTGCT | 1.011 ± 0.0063 |
| AATCTTTGTG | 0.976 ± 0.033 |
| AATGAAAGGT | 1.01 ± 0.022 |
| AATGAACATG | 0.978 ± 0.037 |
| AATGAAGGTC | 0.965 ± 0.079 |
| AATGAAGTGT | 0.996 ± 0.012 |

| Sequence | switch fluorescence ratio |
| --- | --- |
| AATGAATCGT | 1 ± 0.015 |
| AATGAATTGG | 0.9691 ± 0.005 |
| AATGACTCAT | 0.9808 ± 0.0049 |
| AATGAGAGTT | 0.9909 ± 0.0011 |
| AATGAGGGGG | 0.978 ± 0.05 |
| AATGAGTCAA | 1 ± 0.021 |
| AATGAGTGTG | 0.9805 ± 0.0029 |
| AATGATAGTA | 1.006 ± 0.0034 |
| AATGATATCA | 1.01 ± 0.025 |
| AATGATCGAC | 0.975 ± 0.012 |
| AATGATGCCT | 0.995 ± 0.036 |
| AATGATGTAC | 1.05 ± 0.01 |
| AATGCACTCG | 1.04 ± 0.05 |
| AATGCAGATT | 1.031 ± 0.008 |
| AATGCCAAGG | 1 ± 0.03 |
| AATGCGCCAG | 1.03 ± 0.025 |
| AATGCTGACA | 1 ± 0.016 |
| AATGCTGGTG | 1.075 ± 0.01 |
| AATGCTGGTT | 1.01 ± 0.015 |
| AATGGACGTG | 1 ± 0.028 |
| AATGGAGATG | 1 ± 0.041 |
| AATGGAGTGG | 0.997 ± 0.028 |
| AATGGCAATG | 1.05 ± 0.026 |
| AATGGCAATT | 0.995 ± 0.033 |
| AATGGCAGGG | 0.988 ± 0.039 |

— the supplement of paper PMC10126150
